T1: human GIP receptor (human, UniProt P48546 22-466)
T1 sequence (looked up): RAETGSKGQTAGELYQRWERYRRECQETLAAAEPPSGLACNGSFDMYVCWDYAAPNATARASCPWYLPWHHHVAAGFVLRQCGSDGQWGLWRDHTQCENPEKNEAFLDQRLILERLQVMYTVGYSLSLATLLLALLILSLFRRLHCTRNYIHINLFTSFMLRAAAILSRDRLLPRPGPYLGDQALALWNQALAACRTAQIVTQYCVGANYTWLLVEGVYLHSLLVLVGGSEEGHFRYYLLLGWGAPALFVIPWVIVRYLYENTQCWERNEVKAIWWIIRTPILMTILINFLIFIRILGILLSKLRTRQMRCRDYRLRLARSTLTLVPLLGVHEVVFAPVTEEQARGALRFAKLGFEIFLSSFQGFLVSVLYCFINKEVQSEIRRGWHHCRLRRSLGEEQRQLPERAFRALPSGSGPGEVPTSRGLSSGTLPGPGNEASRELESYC

B1: AT512 (peptide)
peptide: PGTFISDYSIAMDRIKQQDFVNWLLAQR
HELM: PEPTIDE1{P.G.T.F.I.S.D.Y.S.I.A.M.D.R.I.K.Q.Q.D.F.V.N.W.L.L.A.Q.R.[am]}|PEPTIDE2{[O=C(O)CCCCCCCCCCCCCCC(=O)[*:2]].[gGlu].[O=C(COCCOCCN[*:1])[*:2]]}$PEPTIDE1,PEPTIDE2,16:R3-3:R2$$$V2.0; N-terminus assumed
SMILES: CC[C@H](C)[C@H](NC(=O)[C@H](CO)NC(=O)[C@H](Cc1ccc(O)cc1)NC(=O)[C@H](CC(=O)O)NC(=O)[C@H](CO)NC(=O)[C@@H](NC(=O)[C@H](Cc1ccccc1)NC(=O)[C@@H](NC(=O)CNC(=O)[C@@H]1CCCN1)[C@@H](C)O)[C@@H](C)CC)C(=O)N[C@@H](C)C(=O)N[C@@H](CCSC)C(=O)N[C@@H](CC(=O)O)C(=O)N[C@@H](CCCNC(=N)N)C(=O)N[C@H](C(=O)N[C@@H](CCCCNC(=O)COCCOCCNC(=O)CC[C@H](NC(=O)CCCCCCCCCCCCCCC(=O)O)C(=O)O)C(=O)N[C@@H](CCC(N)=O)C(=O)N[C@@H](CCC(N)=O)C(=O)N[C@@H](CC(=O)O)C(=O)N[C@@H](Cc1ccccc1)C(=O)N[C@H](C(=O)N[C@@H](CC(N)=O)C(=O)N[C@@H](Cc1c[nH]c2ccccc12)C(=O)N[C@@H](CC(C)C)C(=O)N[C@@H](CC(C)C)C(=O)N[C@@H](C)C(=O)N[C@@H](CCC(N)=O)C(=O)N[C@@H](CCCNC(=N)N)C(N)=O)C(C)C)[C@@H](C)CC
B2: AT514 (peptide)
peptide: GGTFISDYSIAMDRIK([AEEA-AEEA-γGlu-C16 diacid])QQDFVNWLLAQR-NH2
modifications: N-terminus assumed
SMILES: CC[C@H](C)[C@H](NC(=O)[C@H](CO)NC(=O)[C@H](Cc1ccc(O)cc1)NC(=O)[C@H](CC(=O)O)NC(=O)[C@H](CO)NC(=O)[C@@H](NC(=O)[C@H](Cc1ccccc1)NC(=O)[C@@H](NC(=O)CNC(=O)CN)[C@@H](C)O)[C@@H](C)CC)C(=O)N[C@@H](C)C(=O)N[C@@H](CCSC)C(=O)N[C@@H](CC(=O)O)C(=O)N[C@@H](CCCNC(=N)N)C(=O)N[C@H](C(=O)N[C@@H](CCCCNC(=O)COCCOCCNC(=O)COCCOCCNC(=O)CC[C@H](NC(=O)CCCCCCCCCCCCCCC(=O)O)C(=O)O)C(=O)N[C@@H](CCC(N)=O)C(=O)N[C@@H](CCC(N)=O)C(=O)N[C@@H](CC(=O)O)C(=O)N[C@@H](Cc1ccccc1)C(=O)N[C@H](C(=O)N[C@@H](CC(N)=O)C(=O)N[C@@H](Cc1c[nH]c2ccccc12)C(=O)N[C@@H](CC(C)C)C(=O)N[C@@H](CC(C)C)C(=O)N[C@@H](C)C(=O)N[C@@H](CCC(N)=O)C(=O)N[C@@H](CCCNC(=N)N)C(N)=O)C(C)C)[C@@H](C)CC
B3: AT516 (peptide)
peptide: SGTFISDYSIAMDRIK([AEEA-AEEA-γGlu-C16 diacid])QQDFVNWLLAQR-NH2
modifications: N-terminus assumed
SMILES: CC[C@H](C)[C@H](NC(=O)[C@H](CO)NC(=O)[C@H](Cc1ccc(O)cc1)NC(=O)[C@H](CC(=O)O)NC(=O)[C@H](CO)NC(=O)[C@@H](NC(=O)[C@H](Cc1ccccc1)NC(=O)[C@@H](NC(=O)CNC(=O)[C@@H](N)CO)[C@@H](C)O)[C@@H](C)CC)C(=O)N[C@@H](C)C(=O)N[C@@H](CCSC)C(=O)N[C@@H](CC(=O)O)C(=O)N[C@@H](CCCNC(=N)N)C(=O)N[C@H](C(=O)N[C@@H](CCCCNC(=O)COCCOCCNC(=O)COCCOCCNC(=O)CC[C@H](NC(=O)CCCCCCCCCCCCCCC(=O)O)C(=O)O)C(=O)N[C@@H](CCC(N)=O)C(=O)N[C@@H](CCC(N)=O)C(=O)N[C@@H](CC(=O)O)C(=O)N[C@@H](Cc1ccccc1)C(=O)N[C@H](C(=O)N[C@@H](CC(N)=O)C(=O)N[C@@H](Cc1c[nH]c2ccccc12)C(=O)N[C@@H](CC(C)C)C(=O)N[C@@H](CC(C)C)C(=O)N[C@@H](C)C(=O)N[C@@H](CCC(N)=O)C(=O)N[C@@H](CCCNC(=N)N)C(N)=O)C(C)C)[C@@H](C)CC
B4: AT510 (peptide)
peptide: SGTFISDYSIAMDRIKQQDFVNWLLAQR
HELM: PEPTIDE1{S.G.T.F.I.S.D.Y.S.I.A.M.D.R.I.K.Q.Q.D.F.V.N.W.L.L.A.Q.R.[am]}|PEPTIDE2{[O=C(O)CCCCCCCCCCCCCCC(=O)[*:2]].[gGlu].[O=C(COCCOCCN[*:1])[*:2]]}$PEPTIDE1,PEPTIDE2,16:R3-3:R2$$$V2.0; N-terminus assumed
SMILES: CC[C@H](C)[C@H](NC(=O)[C@H](CO)NC(=O)[C@H](Cc1ccc(O)cc1)NC(=O)[C@H](CC(=O)O)NC(=O)[C@H](CO)NC(=O)[C@@H](NC(=O)[C@H](Cc1ccccc1)NC(=O)[C@@H](NC(=O)CNC(=O)[C@@H](N)CO)[C@@H](C)O)[C@@H](C)CC)C(=O)N[C@@H](C)C(=O)N[C@@H](CCSC)C(=O)N[C@@H](CC(=O)O)C(=O)N[C@@H](CCCNC(=N)N)C(=O)N[C@H](C(=O)N[C@@H](CCCCNC(=O)COCCOCCNC(=O)CC[C@H](NC(=O)CCCCCCCCCCCCCCC(=O)O)C(=O)O)C(=O)N[C@@H](CCC(N)=O)C(=O)N[C@@H](CCC(N)=O)C(=O)N[C@@H](CC(=O)O)C(=O)N[C@@H](Cc1ccccc1)C(=O)N[C@H](C(=O)N[C@@H](CC(N)=O)C(=O)N[C@@H](Cc1c[nH]c2ccccc12)C(=O)N[C@@H](CC(C)C)C(=O)N[C@@H](CC(C)C)C(=O)N[C@@H](C)C(=O)N[C@@H](CCC(N)=O)C(=O)N[C@@H](CCCNC(=N)N)C(N)=O)C(C)C)[C@@H](C)CC
B5: AT508 (peptide)
peptide: GGTFISDYSIAMDRIKQQDFVNWLLAQR
HELM: PEPTIDE1{G.G.T.F.I.S.D.Y.S.I.A.M.D.R.I.K.Q.Q.D.F.V.N.W.L.L.A.Q.R.[am]}|PEPTIDE2{[O=C(O)CCCCCCCCCCCCCCC(=O)[*:2]].[gGlu].[O=C(COCCOCCN[*:1])[*:2]]}$PEPTIDE1,PEPTIDE2,16:R3-3:R2$$$V2.0; N-terminus assumed
SMILES: CC[C@H](C)[C@H](NC(=O)[C@H](CO)NC(=O)[C@H](Cc1ccc(O)cc1)NC(=O)[C@H](CC(=O)O)NC(=O)[C@H](CO)NC(=O)[C@@H](NC(=O)[C@H](Cc1ccccc1)NC(=O)[C@@H](NC(=O)CNC(=O)CN)[C@@H](C)O)[C@@H](C)CC)C(=O)N[C@@H](C)C(=O)N[C@@H](CCSC)C(=O)N[C@@H](CC(=O)O)C(=O)N[C@@H](CCCNC(=N)N)C(=O)N[C@H](C(=O)N[C@@H](CCCCNC(=O)COCCOCCNC(=O)CC[C@H](NC(=O)CCCCCCCCCCCCCCC(=O)O)C(=O)O)C(=O)N[C@@H](CCC(N)=O)C(=O)N[C@@H](CCC(N)=O)C(=O)N[C@@H](CC(=O)O)C(=O)N[C@@H](Cc1ccccc1)C(=O)N[C@H](C(=O)N[C@@H](CC(N)=O)C(=O)N[C@@H](Cc1c[nH]c2ccccc12)C(=O)N[C@@H](CC(C)C)C(=O)N[C@@H](CC(C)C)C(=O)N[C@@H](C)C(=O)N[C@@H](CCC(N)=O)C(=O)N[C@@H](CCCNC(=N)N)C(N)=O)C(C)C)[C@@H](C)CC

These results are taken from patent publication US20220025010A1 (ANTAG THERAPEUTICS, published 2022).

*1 amine or outer side, *2 acyl side, *3 side chain or, on linkers, in order; H or OH if unused. Where no end group is shown, it is not given here. Side-chain parts run from the residue outwards. The star is where a group is joined. C16 diacid = O=C(O)CCCCCCCCCCCCCCC(=O)*; γGlu = O=C(O)[C@H](CCC(=O)[*:2])N[*:1]; AEEA = NCCOCCOCC(=O)O

This experiment addresses T1, human GIP receptor. The experiment in a line: cell-based or functional assay.
Regarding B1, the “CisBio cAMP agonism % Efficacy” value is 0%, the “CisBio cAMP antagonism % inhib” value came to 73%, the “CisBio cAMP antagonism IC50” value came out at 0.0794 µM and the “CisBio cAMP antagonism pIC50” value was 7.1. Moreover, the “DiscoveRx cAMP antagonism % inhib” value came out at 80%, the “DiscoveRx cAMP antagonism IC50” value was determined as 0.168 µM and the “DiscoveRx cAMP antagonism log IC50” value is -6.8 log M.

In the case of B2, the “CisBio cAMP agonism % Efficacy” value was 0%, the “CisBio cAMP antagonism % inhib” value was 86%, the “CisBio cAMP antagonism IC50” value came out at 0.0316 µM and the “CisBio cAMP antagonism pIC50” value is 7.5. Further, the “DiscoveRx cAMP antagonism % inhib” value was 80%, the “DiscoveRx cAMP antagonism IC50” value was 0.039 µM and the “DiscoveRx cAMP antagonism log IC50” value was -7.4 log M.

Regarding B3, the “CisBio cAMP agonism % Efficacy” value is 0%, the “CisBio cAMP antagonism % inhib” value was 88%, the “CisBio cAMP antagonism IC50” value was determined as 0.0271 µM and the “CisBio cAMP antagonism pIC50” value is 7.6. Besides, the “DiscoveRx cAMP antagonism % inhib” value was 100%, the “DiscoveRx cAMP antagonism IC50” value turned out to be 0.031 µM and the “DiscoveRx cAMP antagonism log IC50” value was -7.5 log M.

Take B4: the “CisBio cAMP agonism % Efficacy” value was determined as 2%, the “CisBio cAMP antagonism % inhib” value amounted to 87%, the “CisBio cAMP antagonism IC50” value came to 0.0584 µM and the “CisBio cAMP antagonism pIC50” value came out at 7.2. Also, the “DiscoveRx cAMP antagonism % inhib” value was 100%, the “DiscoveRx cAMP antagonism IC50” value came to 0.03 µM and the “DiscoveRx cAMP antagonism log IC50” value is -7.5 log M.

Turning to B5, the “CisBio cAMP agonism % Efficacy” value amounted to 0%, the “CisBio cAMP antagonism % inhib” value is 89%, the “CisBio cAMP antagonism IC50” value turned out to be 0.0926 µM and the “CisBio cAMP antagonism pIC50” value stood at 7. In addition, the “DiscoveRx cAMP antagonism % inhib” value was found to be 100%, the “DiscoveRx cAMP antagonism IC50” value worked out at 0.023 µM and the “DiscoveRx cAMP antagonism log IC50” value is -7.6 log M.
